According to article PMC6112790, “MicroED structure of the NaK ion channel reveals a Na^+ partition process into the selectivity filter” (Communications Biology, 2018):

Target: the molecule itself
Experiment: crystal structure; MicroED (electron diffraction, continuous rotation) of nano-crystals grown in Na+ buffers with MPD, protein in DM detergent; 11 crystals merged; 2.5 Å; space group I4; tetramer on the four-fold axis

B1: NaK–∆19 (NaK ion channel from Bacillus cereus with the first 19 residues truncated) (domain or fragment)
chain: KDKEFQVLFVLTILTLISGTIFYSTVEGLRPIDALYFSVVTLTTVGDGNFSPQTDFGKIFTILYIFIGIGLVFGFIHKLAVNVQLPSILSNRKKE
notes: NaK channel, Bacillus cereus, wild type with the first 19 residues truncated (about 10-kDa monomer); also called molA; molB
**Q.** B1 was tested. Which “stoichiometry N” value did it give?
**A.** Its value is 4.
